Assay results reported in the supplement of paper PMC9112550, “Optimization of the antimicrobial peptide Bac7 by deep mutational scanning” (BMC Biology, 2022).

Each sequence was assayed on Escherichia coli TOP10 (assay: shrunken log2 fold change of peptide-encoding DNA abundance (4.5 h post-induction vs induction); higher = less antimicrobial activity (less host growth inhibition)). Conditions: time post-induction: 4.5 h; library: site-saturation at positions 5, 18, 19, 20.
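Also: peptides expressed intracellularly from a pBAD plasmid library in pooled LB shake-flask culture, induced with 0.3% L-arabinose, DNA abundance read by NGS, three biological replicates, DESeq2 with apeglm shrinkage.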

| Sequence | shrunken log2 fold change |
| --- | --- |
| RRIRRRPPRLPRPRPRPKTSPRP | 2.22 |
| RRIRYRPPRLPRPRPRPHPGPRP | -0.727 |
| RRIRTRPPRLPRPRPRPKIWPRP | 0.141 |
| RRIRVRPPRLPRPRPRPVRTPRP | 0.103 |
| RRIRERPPRLPRPRPRPCWSPRP | 0.0767 |
| RRIRLRPPRLPRPRPRPMPVPRP | 0.132 |
| RRIRFRPPRLPRPRPRPWCMPRP | -0.214 |
| RRIRERPPRLPRPRPRPNKAPRP | 0.12 |
| RRIRYRPPRLPRPRPRPVDQPRP | -0.611 |
| RRIRVRPPRLPRPRPRPRISPRP | -0.187 |
| RRIRGRPPRLPRPRPRPAVHPRP | 0.536 |
| RRIRSRPPRLPRPRPRPAAKPRP | 0.155 |
| RRIRMRPPRLPRPRPRPRACPRP | 0.593 |
| RRIRDRPPRLPRPRPRPVAGPRP | 0.851 |
| RRIRQRPPRLPRPRPRPHQWPRP | 0.323 |
| RRIRKRPPRLPRPRPRPDKQPRP | 0.0638 |
| RRIRARPPRLPRPRPRPNKRPRP | 0.214 |
| RRIRGRPPRLPRPRPRPYAQPRP | 0.104 |
| RRIRPRPPRLPRPRPRPDCKPRP | -0.133 |
| RRIRKRPPRLPRPRPRPQACPRP | -0.109 |
| RRIRNRPPRLPRPRPRPDQLPRP | 0.0418 |
| RRIRMRPPRLPRPRPRPACGPRP | 0.811 |
| RRIRDRPPRLPRPRPRPTCRPRP | 0.175 |
| RRIRTRPPRLPRPRPRPISLPRP | -0.0795 |
| RRIRNRPPRLPRPRPRPDVFPRP | -0.199 |

| Sequence | shrunken log2 fold change |
| --- | --- |
| RRIRARPPRLPRPRPRPTRRPRP | 1.1 |
| RRIRKRPPRLPRPRPRPHTNPRP | 0.192 |
| RRIRIRPPRLPRPRPRPYNNPRP | -0.462 |
| RRIRARPPRLPRPRPRPQKIPRP | -0.108 |
| RRIRSRPPRLPRPRPRPFCPPRP | -0.31 |
| RRIRNRPPRLPRPRPRPGWNPRP | 0.324 |
| RRIRIRPPRLPRPRPRPYVHPRP | -0.189 |
| RRIRFRPPRLPRPRPRPSAIPRP | -0.304 |
| RRIRPRPPRLPRPRPRPKSSPRP | -0.278 |
| RRIRMRPPRLPRPRPRPGQRPRP | 1.08 |
| RRIRSRPPRLPRPRPRPCVDPRP | 0.00587 |
| RRIRDRPPRLPRPRPRPIANPRP | 0.274 |
| RRIRNRPPRLPRPRPRPWMHPRP | -0.228 |
| RRIRIRPPRLPRPRPRPDYTPRP | -0.00167 |
| RRIRLRPPRLPRPRPRPVIEPRP | -0.0888 |
| RRIRHRPPRLPRPRPRPYYNPRP | -1.28 |
| RRIRQRPPRLPRPRPRPVCVPRP | 0.18 |
| RRIRNRPPRLPRPRPRPMGKPRP | -0.491 |
| RRIRRRPPRLPRPRPRPKMKPRP | 0.316 |
| RRIRTRPPRLPRPRPRPYNVPRP | -0.297 |
| RRIRQRPPRLPRPRPRPHLPPRP | 0.0272 |
| RRIRSRPPRLPRPRPRPAGNPRP | -0.0422 |
| RRIRFRPPRLPRPRPRPMFLPRP | -0.712 |
| RRIRTRPPRLPRPRPRPEGLPRP | 0.0624 |
| RRIRIRPPRLPRPRPRPDQKPRP | -0.0112 |

| Sequence | shrunken log2 fold change |
| --- | --- |
| RRIRDRPPRLPRPRPRPDANPRP | 0.163 |
| RRIRARPPRLPRPRPRPVMTPRP | -0.00766 |
| RRIRVRPPRLPRPRPRPYWWPRP | -0.208 |
| RRIRWRPPRLPRPRPRPTRCPRP | 0.0338 |
| RRIRHRPPRLPRPRPRPWLCPRP | 0.111 |
| RRIRLRPPRLPRPRPRPVIGPRP | -0.173 |
| RRIRERPPRLPRPRPRPTQIPRP | 0.0737 |
| RRIRARPPRLPRPRPRPKYNPRP | -0.411 |
| RRIRMRPPRLPRPRPRPAMAPRP | 0.778 |
| RRIRVRPPRLPRPRPRPSQIPRP | -0.206 |
| RRIRCRPPRLPRPRPRPQSHPRP | -0.304 |
| RRIRFRPPRLPRPRPRPTDWPRP | 0.335 |
| RRIRTRPPRLPRPRPRPTAYPRP | -0.0821 |
| RRIRKRPPRLPRPRPRPHYIPRP | -0.123 |
| RRIRFRPPRLPRPRPRPLDWPRP | -0.119 |
| RRIRKRPPRLPRPRPRPHCNPRP | -0.275 |
| RRIRLRPPRLPRPRPRPRNFPRP | -0.112 |
| RRIRSRPPRLPRPRPRPMIQPRP | 0.0624 |
| RRIRSRPPRLPRPRPRPTDGPRP | -0.115 |
| RRIRWRPPRLPRPRPRPWPQPRP | 0.273 |
| RRIRDRPPRLPRPRPRPENDPRP | 0.41 |
| RRIRNRPPRLPRPRPRPSHCPRP | -0.801 |
| RRIRVRPPRLPRPRPRPYHWPRP | -0.633 |
| RRIRDRPPRLPRPRPRPSNAPRP | -0.184 |
| RRIRHRPPRLPRPRPRPHAEPRP | -0.0216 |
